Assay: soluble on expression in E. coli; label from the status in PepcDB or PDB records

Question: For “MGSDKIHHHHHHMIPPASTLRSRLKMQHLRLLLSIEERGSLRQAADALSLSQPAVTKMLQDMEALLGVTLFERHLRGLRPTRFGMAVTRYANLVFSDLANLHDELVSLETGRIGKVRIGAVMAPTPVLMAEVIRRLKRDHPGLNMTVHVDTSDMLVPMLERDQLDLVLGRVPEGWDASHLTFEQLGDERLAVVVGCDHPLAKRTDPTFGELATYPWILQPRPSPMRALIDRSFEEAGVTAPQSTIETAAILMTTSLLTGSDLVAVVPMAVATFHASMGLLHILPVPLPRKLDPYGIVTRLGRPPSASMTLFVDVLRAVVEEGGQ”, which “soluble on expression in E. coli” value is on record?
Answer: Its value is “not soluble”.

Question: For “MGSDKIHHHHHHMIQMFINLLETIPSLGRHSFQVAFLSAQIAEKMNLDPNVSFLSGLIHDLGLILPYEGKTLLDEIDDTFVIVRDTPGKPLHLHSILGSFITDYVEKLKPISPIVLKHHFPASYLDKTEENLISNIVFISDQVSRYTMINLDVSPRDILIALEDMKSFFFPEVFEACREVLNTEFVQWQLENILAGYDVTDLLDHHVRNCPDCDKKDLIQIGKIVSFIVDTKSEFTTSHTWRVAVFSEKMAEKAGRNSEDLFIAGLYHDIGKISVSYKILEKPAKLSDEEYAIMKKHVYFSYLILLPYKDENWFLPAVRHHERLDGYGYPFRLKGEEMTLEDKIIQVADVFSALLEERPYRPANTVEKALSMVREEVKKKKLSQEAFELLESSLEDFDLSSIEVGREIRKEIRTFVNRVVEKFGDYVL”, which “soluble on expression in E. coli” value is on record?
Answer: Its value is “not soluble”.

Question: With “MGSDKIHHHHHHMIQVPASFDIQGHRGCRGLLPENTIAAFTKALLLGVTTLEFDLVISKDNRVVVSHDTFFHHEITMMVDGEDVTEANEKNFNLYAMNYADIKEIDVGMKTHPRFKSQKKVPAVKPLFRELIETAEKLSAKIQYNGEIKSTVEGDNIDHPNIALFCDLVVAEIKKAHITDRFTLQSFDVRALEYMHSQYPDIKLSYLVETKGTLKKQLEKLSFTPAVYSPDVTLVSKKDIDAAHKLGMRVIPWTVNTKEEIETLISLGVDGIITDYPDLFFEK” as the sequence, how does the “soluble on expression in E. coli” value read?
Answer: Its value is “not soluble”.

Question: For “MGSDKIHHHHHHMIRKFVNRKRELEVLEKARLFVVHGRRRVGKTALLRKFLENKRYEKDVEGFSQEISSFINAPVRFESSRDAFKFLREQGKLIVILDEFPYLIEADKGIVSEFQEIVDVMLDNSDVTLILCGSSVGMMEREVPSYKSPLYGRAGGILKVQPFRFFDMVEWFGKDFERLLRIYDVTWGIPKYMEFFRTGSDEEIIANFFDPSAFLFNEARLLLLEELRNPSRYMQIIEAITLWKTRLNEIAQYTGIEPKDLPSYLRVLSNLGIIKREVPITERKGKRWVYVIEDEYFRFYHRFVSPHYEEIESLNPEPAIEDFRKNFNAYLGRTFEKVSREFLTRVIKPSKVGRWWHKGEEIDIVALKGEERKALLVEVKWKELSEKEARRILKDLEHKGELIGMEKWKRCYGLIAKKIENKESIKGEGFFLWDLKDFKSEMI”, which “soluble on expression in E. coli” value is on record?
Answer: Its value is “not soluble”.

Question: For “MGSDKIHHHHHHMIRLFEYDSKQAQSLSQVPVHQPSIIRVIHGEKSLLWQDESVLVGQGQLLLIPAGSHISFVNRPFLGRYRAVQLLLPHDLPQGILSSTADWRDPMPVQNVSRAVDLAWNALLQSLSLSLADSVQLHYLAALLLSLPDKRSVNWLYGHTQRSVTQAALALMSVSPSAPWQQEEIADKLHMSTASLRRKLVLEDTSFRQLLVEVRLSHGLAMLQNSGEPLLQVALACGYQSAEKFSLRFKQQFGLTPAAYRRTL”, which “soluble on expression in E. coli” value is on record?
Answer: The value was “not soluble”.

Question: Which “soluble on expression in E. coli” value does the source give for “MGSDKIHHHHHHMISNEQYDYLRAHPTFERLTRDSFDQLAKHIRFRKIPKGQIFFYAEDPRDYLFVLYKGYARIEQYDETDSFTYLDYIRQGGAFPFGDMFQDKPYHYTAIAITDLEYFIVPMVLFETLSKINPSQMVYICQKLSKVLRFQELRLRNAMRSKASDRVVQALALLYWDMCQRDQFATLPFEIHIQEISRLAATTRETVSHVLKQLKQDGKIAYSHKQLTYLDIDYFLENLTETH” here?
Answer: Its value is “not soluble”.

Question: Which “soluble on expression in E. coli” value does the source give for “MGSDKIHHHHHHMITEELQKLYQEYTGVPVENITELPSSGSNRRYFRLTGAKTLIGVCGTSVEENDAFLYMAAHFRKSGLPVPEVHIVSENKSYYLQEDLGDTLLFHAIEKGRATSVFSEEEKELLRKTVRLLPAIQFAGADGFDFSRCYPQPEFNQRSILWDLNYFKYCFLKATGMEFQEDKLEDDFQKMSDVLLRSSSATFMYRDFQSRNVMIKDGEPWFIDFQGGRKGPFYYDVASFLWQAKAKYPDSLRQELLKEYIDALRKYQPIDEPYFYSQLRHFVLFRTLQVLGAYGFRGYFEKKPHFIQSVPFAIQNLRDLLKEAYPEYPYLCNVLRELTELKQFTDDLKKRQLTVKVMSFAYKKGIPDDPTGNGGGYVFDCRAVNNPGKYERYKPFTGLDEPVISFLEEDGEILRFLDSVYALVDASVKRYMERGFSNLSVCFGCTGGQHRSVYSAQHLAEHLNRKFGVKVELVHREQNIERTFEATV” here?
Answer: Its value is “not soluble”.

Question: With “MGSDKIHHHHHHMITKEDIVADVVTDYPKSADIFRNAGIDFCCGGQESIASAVNHKPNIDLNSLLNKLNHIDNTEGNSTINPKFLNVESLIQYIQSAYHETLKEEFKNLTPYMTKLAKVHGPSHPYLLKLQDLYREFRDSMLDHIRKEDEEDFPKLIQYSQGQDVQNIKIILEDLINDHEDTGQLLNVMNQLTSDYQTPEEACGTWKLVYQRLQNIERQTHQHVHLENHVLFKKVS” as the sequence, how does the “soluble on expression in E. coli” value read?
Answer: Its value is “not soluble”.

Question: For “MGSDKIHHHHHHMIVEKRRFPSPSQHVRLYTICYLSNGLRVKGLLAEPAEPGQYDGFLYLRGGIKSVGMVRPGRIIQFASQGFVVFAPFYRGNQGGEGNEDFAGEDREDAFSAFRLLQQHPNVKKDRIHIFGFSRGGIMGMLTAIEMGGQAASFVSWGGVSDMILTYEERQDLRRMMKRVIGGTPKKVPEEYQWRTPFDQVNKIQAPVLLIHGEKDQNVSIQHSYLLEEKLKQLHKPVETWYYSTFTHYFPPKENRRIVRQLTQWMKNR”, which “soluble on expression in E. coli” value is on record?
Answer: Its value is “not soluble”.

Question: With “MGSDKIHHHHHHMIVLGHRGYSAKYLENTLEAFMKAIEAGANGVELDVRLSKDGKVVVSHDEDLKRLFGLDVKIRDATVSELKELTDGKITTLKEVFENVSDDKIINIEIKEREAADAVLEISKKRKNLIFSSFDLDLLDEKFKGTKYGYLIDEENYGSIENFVERVEKERPYSLHVPYQAFELEYAVEVLRSFRKKGIVIFVWTLNDPEIYRKIRREIDGVITDEVELFVKLR” as the sequence, how does the “soluble on expression in E. coli” value read?
Answer: Its value is “not soluble”.

Question: With “MGSDKIHHHHHHMIWYLEKWRRRWILGRKPIRESVWQSAVDQLPFLHGLTQDEFRQLREWTSIFLHDKKINGVQGLVVTEAMRVMIAVQACLLILKLDPEYYDDWVEVIVYPGKFILDHAYTDETGIVHTRRMVASGESWQAGPVILSWEDVVHVHHESGYNVVIHEFAHKLDMLNGSANGYPPLHSDMDPRIWAVVFSRAYEIFCRQVERGEVTIMDPYAAEDPAEFFAVSSEVFFTRPYRIKQYFPEMYQQLARYYRQDPAARQECETDS” as the sequence, how does the “soluble on expression in E. coli” value read?
Answer: Its value is “not soluble”.

Question: Which “soluble on expression in E. coli” value does the source give for “MGSDKIHHHHHHMIYIGLPQWSHPKWVRLGITSLEEYARHFNCVEGNTTLYALPKPEVVLRWREQTTDDFRFCFKFPATISHQAALRHCDDLVTEFLTRMSPLAPRIGQYWLQLPATFGPRELPALWHFLDSLPGEFNYGVEVRHPQFFAKGEEEQTLNRGLHQRGVNRVILDSRPVHAARPHSEAIRDAQRKKPKVPVHAVLTATNPLIRFIGSDDMTQNRELFQVWLQKLAQWHQTTTPYLFLHTPDIAQAPELVHTLWEDLRKTLPEIGAVPAIPQQSSLF” here?
Answer: Its value is “not soluble”.

Question: For “MGSDKIHHHHHHMIYNDRLGEVMDLNTLIKIIEKVGRIEIEDIKITADELIINIPSAPPIVIPQTPSIKEKLAEEGIIEIKDVPELDWEPPVEKYPGYIREVQFGKPKSEGGRGKVVKIGGQRALYRFEEPQPNPPVVTFDIFDIPMPGLPKPIRQFFQDVMEDPCEWAKKCVKEFGADMITIHHISTDPKIKDKSPKEAAKLMEDLLQAVDVPFVIGGSGNPQKDPLVLEACAEVAEGDRCLLASANLELDYKKIVDAAMKYDHNVLAWSIMDPNMARDLNRKLVEAGLDPNRIVMDPTTCALGYGIEFSINAMVRLRLNGLKGDELVNMPMSSGTTNAIGAREAWMNNPEWGPREYRLPLWEITTGITMMMCGVDLFMMLNPISVKTLKEIGKTLTTKPGEVKLNTNNYEWIVSP”, which “soluble on expression in E. coli” value is on record?
Answer: The value was “not soluble”.

Question: For “MGSDKIHHHHHHMKAMAMTPKPTAAIVGMGDAYASMQDRKDPIQLAVAATHKALADAGITKDQVDAVFTGRSPWADKRSQWSNIFCSHMHMPVTITSEITMHGAGLNATVAMAAQMIAAGRAQYVLCLQSDATELFVDAVAMGAEADADPQFEIPYGPTIPALYAQAACRYFHEFGITEEDLADVAIANQSWAMHHPHAAKARFGSIDRAKVLSSPYVATPLRRWMCSTWGGGTGGALVVTSVDNARTAQDPVYVMGYGSATTHEYLGDRMNMRRCRYPSLGAFPNLTHTATAEAARQAYESSGLTPADIDMAQISVNFAHMGPLIMEDLGFAAKGRGMDLYRAGRTGVDGDLPIDTNGGWLSFGQPGISCNMDSYAEAVRQLRGNALGRAPARRPRTVLVQGSGGMLAAGSVTILASEL”, which “soluble on expression in E. coli” value is on record?
Answer: Its value is “not soluble”.

Question: For “MGSDKIHHHHHHMKAVLVEQPGSSEQLKVVEREIPKIKEGWSLVKIKGFGINRSEIFTRKGYSPSVVFPRVLGIECVGIIEETSDKNHFFHGQKVVSIMGEMGRAFDGSYAEYVLLPNEQIYPIKTNLTWDKLAAAPESYYTAYGAYKNLKLKKQDLVLVRAGASGVALAFLNLLKASLPEIKVTASVRSLAKKQQLLDSGYDEVIIDRDSCLQTKQKFDKVLDLIGPACIDDTLNHVADGGIICLVGLLGGQWTLDNFDPIMALQNNIYLTTFYSGNINLNKLQELFDFIAKYAVPIKVEKIFTIDHIKEAHDYLESPQAFGKVIVLNGVA”, which “soluble on expression in E. coli” value is on record?
Answer: Its value is “not soluble”.

Question: For “MGSDKIHHHHHHMKDNPISPTIPLDQDGVHHGFLKLPYSRDDSAWGSVMIPITVIQNGAGKTALLTGANHGDEYEGPVALQELAATTRAEDVTGRLIIVPYFNYPAFRASARTSPIDRGNLNRAFPGRPDGTVTQKIADYFQRTLLPMADVAVDFHSGGKTLDFVPFAAAHILEDKVLQDACFAAMQAFNAPYSVQLLEIDSEGMYDTAVEEMGKVLVTTELGGGGMSTARSNAIAKKGLRNVLIHFGILQGEMQIDPSVTLDMPDGDCYLFSEHDGLFEIMIDLGEPVQEGDLVARVWSPDRTGEAPVEYRARRSGVLISRHFPGMIKSGDCAAVIGVVEG”, which “soluble on expression in E. coli” value is on record?
Answer: The value was “not soluble”.

Question: For “MGSDKIHHHHHHMKDRSFDTLQEAVDVLSLTLNGPVTLEDREHRLLAYSKHSHETDSARIETIMNRQVPDRVIEGLWSSGLLQKLNQTDEPIRIPGIPAVGLGNRVAISIRQQQFVLGYIWVLELEEPLTDEQLNDLKDMVSLIRAMLIKQQETRFRRRLEREERWRHLYQGTETVAEVKRRFQAEGEPLPERGVVVQFFCERTIKEEHEQALSFISEKVKSRILVTFAMLIDGKWTVYLTDSLKKPLDEQVVKHFIDQWIRSWNDQFSYANVLAGVGQHCSQLTDVSESFHQAEKVIELKGEFAYELDKVYYFHELGFYRIIVDSVPILESETVQTLAAYDQKQGTELLQTLEAFLDVDGRNQAAAALLHVHPNTLNYRMKRIYELTGLDVKNMKDKVSLYLELKLRRWRNRVE”, which “soluble on expression in E. coli” value is on record?
Answer: The value was “not soluble”.

Question: For “MGSDKIHHHHHHMKELKIIFIPGWGMEEGVWTLVLPYFKEYSVQCINWRNVKEQSEFAGRIIDVAKDENVILVGWSLGALAAVQAHKKIQTKGIVLIGGTPKFTNTSDYTSGWNALHVERLKKNVARKKEDTLKRFYENMFTKDELKENTSFEEIALNFKGDSIQSLQLGLDYLIETDMRNELIDVKVPLLLLHGEQDVICPLSAAHSMTENANAKLKVVSEAGHALCVTNFEYCANEIIQFVEGIRHDQQNVTTKTI”, which “soluble on expression in E. coli” value is on record?
Answer: The value was “not soluble”.

Question: Which “soluble on expression in E. coli” value does the source give for “MGSDKIHHHHHHMKETSWDDYKIAYQVALDGSLSRAGVSLRINHATVLRRINQLEQALEVKLFIRHQRGYKLTDAGCVLMDEMPEMLAKFSSLENKLQNVEGDISGELRITTVSSFSPVITPALKAFRAKYPKIRLKLISTDDIVPLDSGAAHVSLRAGPSPVGVDLVVKNLIKLETAYHATQDYIDEFGQPKTINEFNDHQWVLPTPEKYRIPFVNYIVDKIDKNRIVFQSNNFSDIHDAVIAGMGIGPLSDHQASLNPSMVKIDLDIPKNGESIWFVYHKDLKHSARIQSFYHFLKAALSDIEQEHLRISDSKTNKD” here?
Answer: The value was “not soluble”.

Reference: the DeepSol protein solubility set
